From patent CN115724950A (YIDAO BIOTECHNOLOGY SUZHOU CO LTD, dated 2023)

T1: HPV6-GFP假病毒 (Human papillomavirus type 6, UniProt P69899 1-500)
T1 sequence: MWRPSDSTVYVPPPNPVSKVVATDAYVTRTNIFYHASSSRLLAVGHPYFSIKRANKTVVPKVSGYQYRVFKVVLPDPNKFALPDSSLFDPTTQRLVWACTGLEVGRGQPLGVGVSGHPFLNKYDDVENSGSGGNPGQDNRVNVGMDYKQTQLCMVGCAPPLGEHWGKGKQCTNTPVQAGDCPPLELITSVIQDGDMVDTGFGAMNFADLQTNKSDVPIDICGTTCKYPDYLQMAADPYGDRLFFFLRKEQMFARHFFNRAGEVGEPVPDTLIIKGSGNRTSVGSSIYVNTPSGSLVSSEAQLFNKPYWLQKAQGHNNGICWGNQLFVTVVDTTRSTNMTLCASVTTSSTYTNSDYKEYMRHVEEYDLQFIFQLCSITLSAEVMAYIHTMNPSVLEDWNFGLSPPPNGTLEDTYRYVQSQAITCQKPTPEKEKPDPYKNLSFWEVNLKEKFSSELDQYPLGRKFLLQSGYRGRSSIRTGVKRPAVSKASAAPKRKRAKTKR

T2: HPV 45 抗原 (Human papillomavirus type 45, UniProt P36741 27-539)
T2 sequence: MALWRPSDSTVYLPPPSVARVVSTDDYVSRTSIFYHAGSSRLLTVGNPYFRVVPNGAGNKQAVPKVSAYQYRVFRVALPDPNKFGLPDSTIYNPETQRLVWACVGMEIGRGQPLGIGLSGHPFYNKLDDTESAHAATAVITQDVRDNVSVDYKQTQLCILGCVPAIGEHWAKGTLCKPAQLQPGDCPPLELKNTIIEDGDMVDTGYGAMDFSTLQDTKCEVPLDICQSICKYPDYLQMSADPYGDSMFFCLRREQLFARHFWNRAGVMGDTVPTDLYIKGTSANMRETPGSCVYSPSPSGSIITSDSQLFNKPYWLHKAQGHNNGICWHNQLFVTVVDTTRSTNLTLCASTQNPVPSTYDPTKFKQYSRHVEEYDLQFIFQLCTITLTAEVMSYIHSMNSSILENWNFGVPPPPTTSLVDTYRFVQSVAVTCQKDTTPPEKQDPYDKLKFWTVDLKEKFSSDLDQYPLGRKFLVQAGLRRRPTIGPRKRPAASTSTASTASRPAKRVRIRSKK

T3: HPV11 抗原 (Human papillomavirus type 11, UniProt P04012 1-501)
T3 sequence: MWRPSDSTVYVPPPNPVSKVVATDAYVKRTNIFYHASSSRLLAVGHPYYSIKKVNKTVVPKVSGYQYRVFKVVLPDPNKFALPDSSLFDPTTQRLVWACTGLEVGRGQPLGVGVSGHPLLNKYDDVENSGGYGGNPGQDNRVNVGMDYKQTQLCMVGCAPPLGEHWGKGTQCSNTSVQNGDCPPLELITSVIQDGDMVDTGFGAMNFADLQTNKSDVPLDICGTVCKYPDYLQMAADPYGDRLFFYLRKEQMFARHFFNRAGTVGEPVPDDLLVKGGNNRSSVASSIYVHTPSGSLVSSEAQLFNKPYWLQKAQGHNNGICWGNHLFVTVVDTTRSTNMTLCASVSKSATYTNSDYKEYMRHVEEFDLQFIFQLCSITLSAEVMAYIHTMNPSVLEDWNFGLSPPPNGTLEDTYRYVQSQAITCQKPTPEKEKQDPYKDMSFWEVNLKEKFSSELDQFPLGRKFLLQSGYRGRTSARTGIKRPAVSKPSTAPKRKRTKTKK

T4: HPV31 抗原 (Human papillomavirus type 31, UniProt P17388 1-504)
T4 sequence: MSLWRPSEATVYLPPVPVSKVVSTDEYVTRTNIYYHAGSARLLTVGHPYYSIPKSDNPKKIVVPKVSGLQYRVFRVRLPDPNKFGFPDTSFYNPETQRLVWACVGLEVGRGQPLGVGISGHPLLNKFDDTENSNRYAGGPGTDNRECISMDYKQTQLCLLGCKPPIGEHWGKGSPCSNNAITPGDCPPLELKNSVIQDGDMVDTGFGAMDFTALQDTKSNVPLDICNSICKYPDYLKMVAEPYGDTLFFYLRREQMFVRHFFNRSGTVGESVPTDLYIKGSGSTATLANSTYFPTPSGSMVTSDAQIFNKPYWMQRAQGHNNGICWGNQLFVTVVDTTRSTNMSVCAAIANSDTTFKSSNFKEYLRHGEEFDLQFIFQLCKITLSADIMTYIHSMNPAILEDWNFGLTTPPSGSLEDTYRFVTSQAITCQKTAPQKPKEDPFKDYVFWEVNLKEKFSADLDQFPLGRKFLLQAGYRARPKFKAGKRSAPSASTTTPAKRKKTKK

T5: HPV 16 抗原 (Human papillomavirus type 16, UniProt P03101 1-505)
T5 sequence: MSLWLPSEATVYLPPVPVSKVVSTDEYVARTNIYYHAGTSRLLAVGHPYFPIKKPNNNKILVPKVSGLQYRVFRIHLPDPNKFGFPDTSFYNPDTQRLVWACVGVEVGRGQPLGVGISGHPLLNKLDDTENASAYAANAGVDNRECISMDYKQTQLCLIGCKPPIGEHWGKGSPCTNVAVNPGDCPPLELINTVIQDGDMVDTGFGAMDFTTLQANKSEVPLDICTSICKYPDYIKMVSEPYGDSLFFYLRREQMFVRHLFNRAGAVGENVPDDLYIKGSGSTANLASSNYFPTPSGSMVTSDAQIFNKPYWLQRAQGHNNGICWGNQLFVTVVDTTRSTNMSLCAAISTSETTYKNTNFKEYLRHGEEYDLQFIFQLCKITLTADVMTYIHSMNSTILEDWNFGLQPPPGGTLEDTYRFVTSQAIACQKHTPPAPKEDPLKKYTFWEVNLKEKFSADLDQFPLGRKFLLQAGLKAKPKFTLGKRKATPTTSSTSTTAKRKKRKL

T6: HPV 33 抗原 (Human papillomavirus type 33, UniProt P06416 1-499)
T6 sequence: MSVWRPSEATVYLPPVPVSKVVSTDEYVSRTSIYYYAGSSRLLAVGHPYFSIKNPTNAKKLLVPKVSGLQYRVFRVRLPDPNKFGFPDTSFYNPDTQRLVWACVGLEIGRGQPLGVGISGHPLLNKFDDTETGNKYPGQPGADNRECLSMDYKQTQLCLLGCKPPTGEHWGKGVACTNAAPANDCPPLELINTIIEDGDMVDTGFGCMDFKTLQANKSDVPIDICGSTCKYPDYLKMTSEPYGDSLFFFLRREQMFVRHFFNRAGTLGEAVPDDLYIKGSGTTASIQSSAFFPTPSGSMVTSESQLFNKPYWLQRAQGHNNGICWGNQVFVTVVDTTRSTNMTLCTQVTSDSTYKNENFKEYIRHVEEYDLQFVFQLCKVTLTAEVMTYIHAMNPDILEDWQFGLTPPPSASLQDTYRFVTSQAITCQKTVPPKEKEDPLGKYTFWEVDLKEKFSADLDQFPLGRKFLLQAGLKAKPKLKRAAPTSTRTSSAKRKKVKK

T7: HPV 18 抗原 (Human papillomavirus type 18, UniProt P06794 62-568)
T7 sequence: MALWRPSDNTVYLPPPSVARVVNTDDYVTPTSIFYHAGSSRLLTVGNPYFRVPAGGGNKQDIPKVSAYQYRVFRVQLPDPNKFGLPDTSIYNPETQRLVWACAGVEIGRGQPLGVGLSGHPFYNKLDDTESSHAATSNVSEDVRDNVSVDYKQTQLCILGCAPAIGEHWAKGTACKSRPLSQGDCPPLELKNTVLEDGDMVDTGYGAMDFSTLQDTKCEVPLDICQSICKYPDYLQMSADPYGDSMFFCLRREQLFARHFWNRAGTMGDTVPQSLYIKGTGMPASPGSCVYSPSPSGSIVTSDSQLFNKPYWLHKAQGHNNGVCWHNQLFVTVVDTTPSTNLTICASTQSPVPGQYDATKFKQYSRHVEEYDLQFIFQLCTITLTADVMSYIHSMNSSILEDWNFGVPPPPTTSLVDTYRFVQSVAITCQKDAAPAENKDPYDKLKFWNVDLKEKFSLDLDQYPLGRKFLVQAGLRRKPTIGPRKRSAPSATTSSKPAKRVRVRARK

T8: HPV 58 抗原 (Human papillomavirus type 58, UniProt P26535 27-524)
T8 sequence: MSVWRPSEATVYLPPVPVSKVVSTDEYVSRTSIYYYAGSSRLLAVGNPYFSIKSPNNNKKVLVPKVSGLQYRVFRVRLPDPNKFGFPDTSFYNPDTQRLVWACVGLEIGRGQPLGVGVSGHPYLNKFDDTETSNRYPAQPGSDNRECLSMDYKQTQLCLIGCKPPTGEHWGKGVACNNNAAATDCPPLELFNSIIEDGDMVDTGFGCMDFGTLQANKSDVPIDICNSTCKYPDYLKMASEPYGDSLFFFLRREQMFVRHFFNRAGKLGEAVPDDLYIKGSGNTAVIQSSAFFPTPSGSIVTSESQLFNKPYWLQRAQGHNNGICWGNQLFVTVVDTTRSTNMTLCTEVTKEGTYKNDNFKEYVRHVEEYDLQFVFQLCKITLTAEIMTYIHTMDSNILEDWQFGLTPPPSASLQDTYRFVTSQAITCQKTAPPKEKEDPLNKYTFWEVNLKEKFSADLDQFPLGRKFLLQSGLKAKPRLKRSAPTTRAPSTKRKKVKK

B1: 1G11 鼠源单克隆抗体 (杂交瘤 CGMCC No.45133) (antibody, V domains shown)
VH: EVKLVESGGGLVKPGGSLKLSCAASGVTFSSYAMSWVRQTPEKRLEWVASITRGGSTYYPDSVKGRFTISRDNARNILYLQMSSLRSEDTAMYYCAREGEDYYGSSYVDYWGQGTTLTVSS
VL: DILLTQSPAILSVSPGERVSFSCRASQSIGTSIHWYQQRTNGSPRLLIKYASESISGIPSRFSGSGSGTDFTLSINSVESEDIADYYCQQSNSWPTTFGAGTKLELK
notes: Tested as hybridoma supernatant (1.3, 1.4) and as protein G purified ascites antibody (1.6, 3.1); also called 第一单克隆抗体; 1G11 Lot#:2021081603
B2: 6H1 鼠源单克隆抗体 (杂交瘤 CGMCC No.45134) (antibody, V domains shown)
VH: EVQLQQSGPEVVKTGASVKISCKASGYSFTGYYMHWVKQSHGKSLEWIGYISCYNGATSYNQKFKGKATFTLDTSSSTAYMQFNSLTSEDSAVYYCAREDEYDGAYYLDYWGQGTTLTVSS
VL: DIVMTQSQKFMSTSVGDRVSVTCKASQNVGTNVAWYQQKPGQSPKTLIYSASYRYSGVPDRFTGSGSGTDFTLTISNVQSEDLAEYFCQQYFRYPLTFGAGTKLELK
notes: Tested as hybridoma supernatant (1.3, 1.4) and as protein G purified ascites antibody (1.6, 3.1); also called 第二单克隆抗体; 6H1 Lot#:2021081604

Experiments:
HPV6-GFP假病毒 = molecular target: T1, HPV6-GFP假病毒; test: cell-based or functional assay
HPV 45 抗原 = molecular target: T2, HPV 45 抗原; test: indirect ELISA, antigen coated at 1 μg/ml, supernatant diluted 20-fold
HPV11 抗原 = molecular target: T3, HPV11 抗原; test: as above
HPV31 抗原 = molecular target: T4, HPV31 抗原; test: as above
HPV 16 抗原 = molecular target: T5, HPV 16 抗原; test: as above
HPV 33 抗原 = molecular target: T6, HPV 33 抗原; test: as above
HPV 18 抗原 = molecular target: T7, HPV 18 抗原; test: as above
HPV 58 抗原 = molecular target: T8, HPV 58 抗原; test: as above

Row | Binder | 假病毒中和实验 (HPV6-GFP假病毒, 293FT细胞, 荧光斑点数) (HPV6-GFP假病毒) | 假病毒中和实验, 中和活性 (HPV6-GFP假病毒) | binding result (HPV 45 抗原) | binding result (HPV11 抗原) | binding result (HPV31 抗原) | binding result (HPV 16 抗原) | binding result (HPV 33 抗原) | binding result (HPV 18 抗原) | binding result (HPV 58 抗原)
1 | B1 | ≥ 5120 fold dilution of supernatant | 20500 fold dilution (titre) | no binding | no binding | no binding | no binding | no binding | no binding | no binding
2 | B2 | ≥ 5120 fold dilution of supernatant | 20500 fold dilution (titre) | no binding | no binding | no binding | no binding | no binding | no binding | no binding
